Results as given in PMC7954794, “Protein context shapes the specificity of SH3 domain-mediated interactions in vivo” (Nature Communications, 2021).

B1: YKR082W_1 (protein, UniProt P36161 2-1157, looked up)
Nucleoporin NUP133: SEKKVHLRLRKELSVPIAVVENESLAQLSYEEESQASLMDISMEQQQLRLHSHFDNSKVFTENNRYIVKTLQTDYSSGFSNDDELNGYIDMQIGYGLVNDHKKVYIWNIHSTQKDTPYITVPFRSDDNDEIAVAPRCILTFPATMDESPLALNPNDQDETGGLIIIKGSKAIYYEDINSINNLNFKLSEKFSHELELPINSSGGEKCDLMLNCEPAGIVLSTNMGRIFFITIRNSMGKPQLKLGKLLNKPFKLGIWSKIFNTNSSVVSLRNGPILGKGTRLVYITTNKGIFQTWQLSATNSHPTKLIDVNIYEAILESLQDLYPFAHGTLKIWDSHPLQDESSQLFLSSIYDSSCNETYYILSTIIFDSSSNSFTIFSTYRLNTFMESITDTKFKPKIFIPQMENANDTNEVTSILVMFPNAVVITQVNSKLDSSYSMRRKWEDIVSLRNDIDIIGSGYDSKSLYVLTKQMGVLQFFVKENEETNSKPEVGFVKSHVDQAVYFSKINANPIDFNLPPEISLDQESIEHDLKLTSEEIFHSNGKYIPPMLNTLGQHLSVRKEFFQNFLTFVAKNFNYKISPELKLDLIEKFEILNCCIKFNSIIRQSDVLNDIWEKTLSNYNLTQNEHLTTKTVVINSPDVFPVIFKQFLNHVVFVLFPSQNQNFKLNVTNLINLCFYDGILEEGEKTIRYELLELDPMEVDTSKLPWFINFDYLNCINQCFFDFTFACEEEGSLDSYKEGLLKIVKILYYQFNQFKIWINTQPVKSVNANDNFININNLYDDNHLDWNHVLCKVNLKEQCIQIAEFYKDLSGLVQTLQTLDQNDSTTVSLYETFFNEFPKEFSFTLFEYLIKHKKLNDLIFRFPQQHDVLIQFFQESAPKYGHVAWIQQILDGSYADAMNTLKNITVDDSKKGESLSECELHLNVAKLSSLLVEKDNLDINTLRKIQYNLDTIDAEKNISNKLKKGEVQICKRFKNGSIREVFNILVEELKSTTVVNLSDLVELYSMLDDEESLFIPLRLLSVDGNLLNFEVKKFLNALVWRRIVLLNASNEGDKLLQHIVKRVFDEELPKNNDFPLPSVDLLCDKSLLTPEYISETYGRFPIDQNAIREEIYEEISQVETLNSDNSLEIKLHSTIGSVAKEKNYTINYETNTVEY
B2: YKL051W_2 (protein, UniProt P35735 1-353, looked up)
Protein SFK1: MIQFKSPGNWLFIVPWIAFIPWYGMLIAMLICWASQGHPIYWFMHSEQFPVYISDIGATNLRPLFISCAGWQGLGYVITVALEFFQRSGYLPFQLKKKDPSISDSTSYAEKLHSGKYLMPPYYTKDERNLIFAAFVLGSIGELALLFSSIFSTALYHRVHIAMVSVFVVFMFLSTCCLIAEYFLMGRHYASVHPLASPHFNPQSSEKSFNQDYNTVDELPWYKWKGHVWNKFTISATLKVIWLTLAVVWAICFGAINDRSKSACFEWLLAFWFGIIFMILSADFYLGGRYRQSRYFNHVESFSGYYKYDKALGLYHSEDVLPSDDNAGVIATETASSNIYNNSSSNESIQVVV
B3: YKR048C_2 (protein, UniProt P25293 1-417, looked up)
Nucleosome assembly protein: MSDPIRTKPKSSMQIDNAPTPHNTPASVLNPSYLKNGNPVRAQAQEQDDKIGTINEEDILANQPLLLQSIQDRLGSLVGQDSGYVGGLPKNVKEKLLSLKTLQSELFEVEKEFQVEMFELENKFLQKYKPIWEQRSRIISGQEQPKPEQIAKGQEIVESLNETELLVDEEEKAQNDSEEEQVKGIPSFWLTALENLPIVCDTITDRDAEVLEYLQDIGLEYLTDGRPGFKLLFRFDSSANPFFTNDILCKTYFYQKELGYSGDFIYDHAEGCEISWKDNAHNVTVDLEMRKQRNKTTKQVRTIEKITPIESFFNFFDPPKIQNEDQDEELEEDLEERLALDYSIGEQLKDKLIPRAVDWFTGAALEFEFEEDEEEADEDEDEEEDDDHGLEDDDGESAEEQDDFAGRPEQAPECKQS
B4: YDR379W_2 (protein, UniProt Q06407 1-1009, looked up)
Rho-type GTPase-activating …: MSADPINDQSSLCVRCNKSIASSQVYELESKKWHDQCFTCYKCDKKLNADSDFLVLDIGTLICYDCSDKCTNCGDKIDDTAIILPSSNEAYCSNCFRCCRCSNRIKNLKYAKTKRGLCCMDCHEKLLRKKQLLLENQTKNSSKEDFPIKLPERSVKRPLSPTRINGKSDVSTNNTAISKNLVSSNEDQQLTPQVLVSQERDESSLNDNNDNDNSKDREETSSHARTVSIDDILNSTLEHDSNSIEEQSLVDNEDYINKMGEDVTYRLLKPQRANRDSIVVKDPRIPNSNSNANRFFSIYDKEETDKDDTDNKENEIIVNTPRNSTDKITSPLNSPMAVQMNEEVEPPHGLALTLSEATKENNKSSQGIQTSTSKSMNHVSPITRTDTVEMKTSTSSSTLRLSDNGSFSRPQTADNLLPHKKVAPSPNKKLSRSFSLKSKNFVHNLKSKTSEMLDPKHPHHSTSIQESDTHSGWGVSSTHTNIRKSKAKKNPVSRGQSDSTIYNTLPQHGNFTVPEFNHKKAQSSLGSISKKQNSNDTATNRRINGSFTSSSSGHHIAMFRTPPLESGPLFKRPSLSSESAHHRSSSLQTSRSTNALLEDDSTKVDATDESATSLEKDFYFTELTLRKLKLDVRELEGTKKKLLQDVENLRLAKERLLNDVDNLTREKDKQSASSRESLEQKENIATSITVKSPSSNSDRKGSISNASPKPRFWKIFSSAKDHQVGDLESQQRSPNSSSGGTTNIAQKEISSPKLIRVHDELPSPGKVPLSPSPKRLDYTPDGSHLYGSSLQARCAYEKSTVPIIIRCCIDRIEKDDIGLNMEGLYRKSGSQTLVEEIENEFAQNNSLHSDTLSPKLNALLNQDIHAVASVLKRYLRKLPDPVLSFSIYDALIDLVRNNQLIERLPLNNDKFLDSPQKVTIYEMVLKSLLEIFKILPVEHQEVLKVLAAHIGKVRRCSERNLMNLHNLSLVFAPSLIHDFDGEKDIVDMKERNYIVEFILGNYRDIFKQA
B5: YGR281W_2 (protein, UniProt P53049 1-1477, looked up)
Oligomycin resistance …: MTITVGDAVSETELENKSQNVVLSPKASASSDISTDVDKDTSSSWDDKSLLPTGEYIVDRNKPQTYLNSDDIEKVTESDIFPQKRLFSFLHSKKIPEVPQTDDERKIYPLFHTNIISNMFFWWVLPILRVGYKRTIQPNDLFKMDPRMSIETLYDDFEKNMIYYFEKTRKKYRKRHPEATEEEVMENAKLPKHTVLRALLFTFKKQYFMSIVFAILANCTSGFNPMITKRLIEFVEEKAIFHSMHVNKGIGYAIGACLMMFVNGLTFNHFFHTSQLTGVQAKSILTKAAMKKMFNASNYARHCFPNGKVTSFVTTDLARIEFALSFQPFLAGFPAILAICIVLLIVNLGPIALVGIGIFFGGFFISLFAFKLILGFRIAANIFTDARVTMMREVLNNIKMIKYYTWEDAYEKNIQDIRTKEISKVRKMQLSRNFLIAMAMSLPSIASLVTFLAMYKVNKGGRQPGNIFASLSLFQVLSLQMFFLPIAIGTGIDMIIGLGRLQSLLEAPEDDPNQMIEMKPSPGFDPKLALKMTHCSFEWEDYELNDAIEEAKGEAKDEGKKNKKKRKDTWGKPSASTNKAKRLDNMLKDRDGPEDLEKTSFRGFKDLNFDIKKGEFIMITGPIGTGKSSLLNAMAGSMRKTDGKVEVNGDLLMCGYPWIQNASVRDNIIFGSPFNKEKYDEVVRVCSLKADLDILPAGDMTEIGERGITLSGGQKARINLARSVYKKKDIYLFDDVLSAVDSRVGKHIMDECLTGMLANKTRILATHQLSLIERASRVIVLGTDGQVDIGTVDELKARNQTLINLLQFSSQNSEKEDEEQEAVVAGELGQLKYESEVKELTELKKKATEMSQTANSGKIVADGHTSSKEERAVNSISLKIYREYIKAAVGKWGFIALPLYAILVVGTTFCSLFSSVWLSYWTENKFKNRPPSFYMGLYSFFVFAAFIFMNGQFTILCAMGIMASKWLNLRAVKRILHTPMSYIDTTPLGRILNRFTKDTDSLDNELTESLRLMTSQFANIVGVCVMCIVYLPWFAIAIPFLLVIFVLIADHYQSSGREIKRLEAVQRSFVYNNLNEVLGGMDTIKAYRSQERFLAKSDFLINKMNEAGYLVVVLQRWVGIFLDMVAIAFALIITLLCVTRAFPISAASVGVLLTYVLQLPGLLNTILRAMTQTENDMNSAERLVTYATELPLEASYRKPEMTPPESWPSMGEIIFENVDFAYRPGLPIVLKNLNLNIKSGEKIGICGRTGAGKSTIMSALYRLNELTAGKILIDNVDISQLGLFDLRRKLAIIPQDPVLFRGTIRKNLDPFNERTDDELWDALVRGGAIAKDDLPEVKLQKPDENGTHGKMHKFHLDQAVEEEGSNFSLGERQLLALTRALVRQSKILILDEATSSVDYETDGKIQTRIVEEFGDCTILCIAHRLKTIVNYDRILVLEKGEVAEFDTPWTLFSQEDSIFRSMCSRSGIVENDFENRS
B6: YAR042W_2 (protein, UniProt P35845 1-1188, looked up)
Oxysterol-binding protein …: MEQPDLSSVAISKPLLKLKLLDALRQGSFPNLQDLLKKQFQPLDDPNVQQVLHLMLHYAVQVAPMAVIKEIVHHWVSTTNTTFLNIHLDLNERDSNGNTPLHIAAYQSRGDIVAFLLDQPTINDCVLNNSHLQAIEMCKNLNIAQMMQVKRSTYVAETAQEFRTAFNNRDFGHLESILSSPRNAELLDINGMDPETGDTVLHEFVKKRDVIMCRWLLEHGADPFKRDRKGKLPIELVRKVNENDTATNTKIAIDIELKKLLERATREQSVIDVTNNNLHEAPTYKGYLKKWTNFAQGYKLRWFILSSDGKLSYYIDQADTKNACRGSLNMSSCSLHLDSSEKLKFEIIGGNNGVIRWHLKGNHPIETNRWVWAIQGAIRYAKDREILLHNGPYSPSLALSHGLSSKVSNKENLHATSKRLTKSPHLSKSTLTQNDHDNDDDSTNNNNNKSNNDYDDNNNNNNNDDDDYDDDDESRPLIEPLPLISSRSQSLSEITPGPHSRKSTVSSTRAADIPSDDEGYSEDDSDDDGNSSYTMENGGENDGDEDLNAIYGPYIQKLHMLQRSISIELASLNELLQDKQQHDEYWNTVNTSIETVSEFFDKLNRLTSQREKRMIAQMTKQRDVNNVWIQSVKDLEMELVDKDEKLVALDKERKNLKKMLQKKLNNQPQVETEANEESDDANSMIKGSQESTNTLEEIVKFIEATKESDEDSDADEFFDAEEAASDKKANDSEDLTTNKETPANAKPQEEAPEDESLIVISSPQVEKKNQLLKEGSFVGYEDPVRTKLALDEDNRPKIGLWSVLKSMVGQDLTKLTLPVSFNEPTSLLQRVSEDIEYSHILDQAATFEDSSLRMLYVAAFTASMYASTTNRVSKPFNPLLGETFEYARTDGQYRFFTEQVSHHPPISATWTESPKWDFYGECNVDSSFNGRTFAVQHLGLWYITIRPDHNISVPEETYSWKKPNNTVIGILMGKPQVDNSGDVKVTNHTTGDYCMLHYKAHGWTSAGAYEVRGEVFNKDDKKLWVLGGHWNDSIYGKKVTARGGELTLDRIKTANSATGGPKLDGSKFLIWKANERPSVPFNLTSFALTLNALPPHLIPYLAPTDSRLRPDQRAMENGEYDKAAAEKHRVEVKQRAAKKEREQKGEEYRPKWFVQEEHPVTKSLYWKFNGEYWNKRKNHDFKDCADIF

System: PPIs identified as affected by the SH3 domain deletions
Assay: Liquid DHFR-PCA low-throughput validation of PPIs affected by SH3 deletion (Fig. S1D-E)
Type: cell-based, Saccharomyces cerevisiae
Conditions: label = prey, liquid DHFR-PCA, prey _1 = lost, _2 = gained in screen
In short: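 Growth at 30 °C was tracked by OD each 15 min over 72 h in agar-free PCA selection medium, starting at 0.1 OD. Cells were diploids selected after mating, first cultured 48 h with NAT and HPH in synthetic complete MSG medium, pH 6.0.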

Row | Molecule | Ratio (Deletedscore / WTscore) (bait BOI1) | Ratio (Deletedscore / WTscore) (bait BZZ1-2) | Ratio (Deletedscore / WTscore) (bait LSB3) | other results
1 | B1 | – | – | – | Ratio (Deletedscore / WTscore) (bait RVS167): 0.6329
2 | B2 | 0.8707 | 1.125 | 1.525 | –
3 | B3 | – | – | 1.174 | Ratio (Deletedscore / WTscore) (bait BOI2): 1.065
4 | B4 | 0.9152 | – | – | –
5 | B5 | 0.9762 | 1.357 | 1.455 | –
6 | B6 | – | – | – | Ratio (Deletedscore / WTscore) (bait ABP1): 1.203
